Two molecules from patent publication US20110054149A1 (published 2011) can be followed below.

Residue numbers refer to the chain shown, from its start.

In test [1] the target is T1, GST-human NOGO-A56 (human, UniProt Q9NQC3 586-785).
T1 construct: also called hNOGO; recombinant human NOGO; not shown: Glutathione S-transferase (GST) tag encoded by vector pGEX-6P1, N-terminal to the NOGO-A fragment; the tag and linker se
T1 sequence: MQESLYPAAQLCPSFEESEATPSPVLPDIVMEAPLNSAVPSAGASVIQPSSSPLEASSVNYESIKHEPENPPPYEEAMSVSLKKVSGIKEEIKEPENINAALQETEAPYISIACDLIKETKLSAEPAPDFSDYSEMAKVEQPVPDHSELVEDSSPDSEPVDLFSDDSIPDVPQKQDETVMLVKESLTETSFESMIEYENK
Briefly: SPR (Biacore 3000), GST-human NOGO-A56 on CM5 chip, antibody as analyte; single experiment. On the procedure:
(§1) The binding kinetics of the anti-NOGO monoclonal antibody (mAb) to recombinantly expressed human NOGO-A (GST-human NOGO-A56) was analysed using the Biacore3000 biosensor. The hNOGO-A chip was prepared as follows:
(§2) hNOGO (GST-human NOGO-A56) was immobilised to a CM5 chip by primary amine coupling using the Biacore Wizard program designed for targeted immobilisation levels. The CM5 sensor surface was activated by passing a solution of 50 mM N-hydroxy-succinimide (NHS) and 200 mM N-ethyl-N′-dimethylaminopropyl […] (EDC). Then hNOGO in sodium acetate buffer, pH5.0 or pH 4.5, was passed over the chip and immobilised. After immobilisation was complete any still activated esters were blocked by an injection of 1M ethanolamine hydrochloride, pH8.5.
(§3) The anti-NOGO mAbs were diluted down in HBS-EP (10 mM HEPES, pH 7.4, 150 mM NaCl, 3 mM EDTA, and 0.005% P-20 surfactant) and binding studies were carried out at range of defined antibody concentrations. All runs were referenced against a blanked sensor surface (one that had been activated and blocked as described earlier but had no addition of ligand). Analysis of binding was carried out using the BIAevaluation kinetic analysis software version 4.1. Biacore analysis of other antibodies of the invention essentially followed the same protocol as described herein.

Test [2] concerns the target T1, GST-human NOGO-A56. Put plainly: SPR (Biacore 3000), GST-human NOGO-A56 on CM5 chip, antibody as analyte; mean (SD) of two experiments. The procedure:
as §1, §2, §3

In test [3] the target is T1, GST-human NOGO-A56. Put plainly: SPR (Biacore 3000), GST-human NOGO-A56 amine-coupled to CM5 chip, antibody as analyte; mean (SD) of four experiments. The procedure:
as §1, §2, §3

The target of test [4] is T1, GST-human NOGO-A56. Briefly: SPR off-rate ranking (Biacore), CHO-K1 transfection supernatant over GST-human NOGO-A56 chip; mean (SD) of two experiments. On the procedure: as §2
The hNOGO chip was prepared as for kinetic analysis. Cell supernatants where taken directly from transient transfections of CHO—K1 cells. These were passed directly over the sensor surface and the interaction measured. A mock transfected cell supernatant was used for double referencing to remove any artefacts due to the tissue culture media. All runs were referenced against a blanked sensor surface (one that had been activated and blocked as described earlier but had no addition of ligand). Analysis of binding was carried out using the BIAevaluation kinetic analysis software version 4.1.

Test [5] has as its target T1, GST-human NOGO-A56. Briefly: SPR (BiaCore kinetic analysis), told in the summary section.

B1: HcLc (chimera of 2A10: murine 2A10 VH and VL with human IgG constant regions) (antibody, V domains shown)
VH: QVQLQQPGTELVKPGASVKLSCKASGYTFTSYWMHWVKQRPGQGLEWIGNINPSNGGTNYNEKFKSKATLTVDKSSSTAYMQLSSLTSEDSAVYYCELGQGYWGQGTLVTVSS
VL: DIVITQDELSNPVTSGESVSISCRSSKSLLYKDGKTYLNWFLQRPGQSPQLLIYLMSTRASGVSDRFSGSGSGTDFTLEISRVKAEDVGVYYCQQLVEYPLTFGAGTKLELKR
notes: also called 2A10 chimeric antibody; the chimera
For the molecule B1, the Kd is 1.6 nM in the test with GST-human NOGO-A56 [1], 0.995 nM with GST-human NOGO-A56 [2] and 1.41 nM with GST-human NOGO-A56 [3]. The koff stood at 0.00412 s⁻¹ in the test with GST-human NOGO-A56 [1], 0.00346 s⁻¹ in the test with GST-human NOGO-A56 [2], 0.00378 s⁻¹ in the test with GST-human NOGO-A56 [3] and 0.00376 s⁻¹ with GST-human NOGO-A56 [4]. Also, the kon was determined as 2.62e+06 M⁻¹ s⁻¹ in the test with GST-human NOGO-A56 [1], 3.52e+06 M⁻¹ s⁻¹ in the test with GST-human NOGO-A56 [2] and 2.7e+06 M⁻¹ s⁻¹ in the test with GST-human NOGO-A56 [3].

B2: murine monoclonal antibody 2A10 (antibody, V domains shown)
VH: B1 VH with L108T, V109L
VL: DIVITQDELSNPVTSGESVSISCRSSKSLLYKDGKTYLNWFLQRPGQSPQLLIYLMSTRASGVSDRFSGSGSGTDFTLEISRVKAEDVGVYYCQQLVEYPLTFGAGTKLELK
notes: Murine antibody; also called donor antibody
On to B2, for which, in the test with GST-human NOGO-A56 [5], the Kd was ~1 nM.
